From article PMC8500459, “Novel Homologs of Isopentenyl Phosphate Kinase Reveal Class‐Wide Substrate Flexibility” (Chemcatchem, 2021) come the findings set out here.

Substrate in data set [1]: CC(C)=CCOP(=O)(O)O
Description: purified protein. The following applies: ATP 1 mM (2 mM in methods), 25 mM Tris pH 7.8, 5 mM MgCl2, 37 °C.

Substrate in data set [2]: C=C(C)CCOP(=O)(O)O
Kind of data set: PK-LDH coupled assay, NADH A340. The class given is biochemical, Thermococcus paralvinellae. The following applies: ATP 1 mM (2 mM in methods), 25 mM Tris pH 7.8, 5 mM MgCl2, 37 °C.

Substrate in data set [3]: Nc1ncnc2c1ncn2[C@@H]1O[C@H](COP(=O)(O)OP(=O)(O)OP(=O)(O)O)[C@@H](O)[C@H]1O
Kind of data set: PK-LDH coupled assay, NADH A340. The format is biochemical, Thermococcus paralvinellae. Conditions: isopentenyl phosphate (1) 1 mM, 25 mM Tris pH 7.8, 5 mM MgCl2, 37 °C.

Substrate in data set [4]: O=P(O)(O)OCc1ccccc1
Kind of data set: PK-LDH coupled assay, NADH A340. Conditions: ATP 1 mM (2 mM in methods), 25 mM Tris pH 7.8, 5 mM MgCl2, 37 °C. The format is biochemical, Thermococcus paralvinellae.

Substrate in data set [5]: C=C(C)CCOP(=O)(O)O
Description: PK-LDH coupled assay, NADH A340. The class given is biochemical, Methanosarcina barkeri. The following applies: ATP 1 mM (2 mM in methods), 25 mM Tris pH 7.8, 5 mM MgCl2, 37 °C.

Substrate in data set [6]: Nc1ncnc2c1ncn2[C@@H]1O[C@H](COP(=O)(O)OP(=O)(O)OP(=O)(O)O)[C@@H](O)[C@H]1O
Description: PK-LDH coupled assay, NADH A340. The class given is biochemical, Methanosarcina barkeri. The following applies: isopentenyl phosphate (1) 1 mM, 25 mM Tris pH 7.8, 5 mM MgCl2, 37 °C.

Substrate in data set [7]: O=P(O)(O)OCc1ccccc1
Kind of data set: PK-LDH coupled assay, NADH A340. The format is biochemical, Methanosarcina barkeri. Conditions: ATP 1 mM (2 mM in methods), 25 mM Tris pH 7.8, 5 mM MgCl2, 37 °C.

Substrate in data set [8]: C=C(C)CCOP(=O)(O)O
Kind of data set: PK-LDH coupled assay, NADH A340. The class given is biochemical, Candidatus Nitrososphaera gargensis. Conditions: ATP 1 mM (2 mM in methods), 25 mM Tris pH 7.8, 5 mM MgCl2, 37 °C. An excerpt: (§1) PK-LDH coupled assay, NADH A340 on CNG

Substrate in data set [9]: Nc1ncnc2c1ncn2[C@@H]1O[C@H](COP(=O)(O)OP(=O)(O)OP(=O)(O)O)[C@@H](O)[C@H]1O
Kind of data set: PK-LDH coupled assay, NADH A340. The format is biochemical, Candidatus Nitrososphaera gargensis. The following applies: isopentenyl phosphate (1) 1 mM, 25 mM Tris pH 7.8, 5 mM MgCl2, 37 °C.
From the text: as §1

Substrate in data set [10]: O=P(O)(O)OCc1ccccc1
Kind of data set: PK-LDH coupled assay, NADH A340. The format is biochemical, Candidatus Nitrososphaera gargensis. Conditions: ATP 1 mM (2 mM in methods), 25 mM Tris pH 7.8, 5 mM MgCl2, 37 °C.
From the text: as §1

Substrate in data set [11]: C=C(C)CCOP(=O)(O)O
Kind of data set: PK-LDH coupled assay, NADH A340. The format is biochemical, Methanohalophilus mahii. The following applies: ATP 1 mM (2 mM in methods), 25 mM Tris pH 7.8, 5 mM MgCl2, 37 °C.

Substrate in data set [12]: Nc1ncnc2c1ncn2[C@@H]1O[C@H](COP(=O)(O)OP(=O)(O)OP(=O)(O)O)[C@@H](O)[C@H]1O
Description: PK-LDH coupled assay, NADH A340. The format is biochemical, Methanohalophilus mahii. Conditions: isopentenyl phosphate (1) 1 mM, 25 mM Tris pH 7.8, 5 mM MgCl2, 37 °C.

Substrate in data set [13]: O=P(O)(O)OCc1ccccc1
Kind of data set: PK-LDH coupled assay, NADH A340. The class given is biochemical, Methanohalophilus mahii. Conditions: ATP 1 mM (2 mM in methods), 25 mM Tris pH 7.8, 5 mM MgCl2, 37 °C.

B1: TCP (Thermococcus paralvinellae) (protein)
chain: MIIIKLGGSVISDKEKEYSFHRHIVEQIAEEIAQFYPDESFILVHGGGSFGHPNAREYKITEGLVGDVDRKRIGFSKTHQAMLKLNDLIIQTFLEKGLPAYSVSSSSIFLLENKEVVYGELEILRKLLELKFIPVLFGDTAIALDKGIDILSGDQIVSYLAKMLKPSKVIFLMDVDGIYDRNPKERDAKLIEELNVEEIRHLLESSESAGIDVTGGIGNKLREALKIAKHSEVYFINGKVKENLGKAIRGEKVGTRLRKLEHPKIS
notes: N-His6 fusion, pET28a NdeI/EcoRI, codon-optimised synthetic gene, E. coli Rosetta2, Ni-NTA
As a reminder, the Km is the substrate concentration at which the rate is half of its maximum. For orientation: kcat means the maximal rate divided by the concentration of active sites. One may read the kcat/Km as the second-order rate constant that governs catalysis at low substrate concentration. Regarding B1, the Km in [1] turned out to be 70 ± 10 µM; in data set [2], 22 ± 6 µM; in data set [3], 15 ± 3 µM; in data set [4] it was 69 ± 10 µM. In addition, the kcat in data set [1] turned out to be 24 s⁻¹; in data set [2], 0.62 ± 0.03 s⁻¹; in data set [3] it was 0.59 ± 0.03 s⁻¹; in [4], 0.039 ± 0.002 s⁻¹. In addition, the kcat/Km is 360000 M⁻¹ s⁻¹ in data set [1], 28000 M⁻¹ s⁻¹ in [2], 39000 M⁻¹ s⁻¹ in [3] and 560 M⁻¹ s⁻¹ in data set [4].

B2: MSB (Methanosarcina barkeri 3) (protein)
chain: MNVSTEPVILKLGGSVITDKAADQGVVREDSLRRIAKEVSEYRGKMIIVHGAGSFGHTYAKKYQLGKVFDPEGAIVTHESVKKLASRVVDTLNEYGVRAIAVHPMCCTICRNGRIESMYLDNIKLMLENGLVPVLHGDVVMDLELRACVLSGDQIVPYLAKELKITRLGLGSAEDGVLDNDGKTVPEITPKTFEDFKHYIRGSGSTDVTGGMLGKVQELLELSKTSCITSYIFNAGKDDNIYRFLNGEPMGTTISPDKRV
notes: as for B1
For B2, the Km in data set [1] was 32 ± 7 µM; in data set [5], 27 ± 5 µM; in [6], 90 ± 10 µM; in data set [7], 45 ± 8 µM. Also, the kcat in data set [1] was determined as 10.1 s⁻¹; in data set [5], 10.3 ± 0.4 s⁻¹; in data set [6], 9.1 ± 0.4 s⁻¹; in data set [7], 1.23 ± 0.07 s⁻¹. Also, the kcat/Km stood at 310000 M⁻¹ s⁻¹ in [1], 380000 M⁻¹ s⁻¹ in data set [5], 100000 M⁻¹ s⁻¹ in [6] and 27000 M⁻¹ s⁻¹ in data set [7].

B3: CNG (Candidatus Nitrososphaera gargensis Ga9.2) (protein)
chain: MQKLALIKLGGSVVTFKDKPLAANTGAIDGISRVLAQLSTPAIIVHGGGSFGHYWSVKYDMHTKPAGYDPHGVSVVHESMIALNQIIINSMIRAGLNPYGMPPSVFAAGHKPVAAKIKQIYTMAKSEVMPVTFGDVVHMEGNKYSILSGDALMTMLAKVLRPSRVVFATNVDGIYKDMASRELMREIRVTTGRKKRSIEFSKASGADVTGGMQRKVAEAFKIASRGMDVLMVNGLMPERIAEAVVEGTRLQVGTVVKGSRR
notes: as for B1
For B3, the Km amounted to 390 ± 90 µM in data set [1], 61 ± 9 µM in data set [8], 21 ± 5 µM in data set [9] and 1200 ± 200 µM in data set [10]. Moreover, the kcat is 0.87 s⁻¹ in data set [1], 1.12 ± 0.05 s⁻¹ in data set [8], 0.81 ± 0.06 s⁻¹ in [9] and 0.83 ± 0.07 s⁻¹ in data set [10]. The kcat/Km in [1] was 2200 M⁻¹ s⁻¹; in data set [8], 18000 M⁻¹ s⁻¹; in data set [9], 39000 M⁻¹ s⁻¹; in data set [10], 700 M⁻¹ s⁻¹.

B4: MHM (Methanohalophilus mahii DSM 5219) (protein)
chain: MNEKNSDITILKIGGSVITDKSSNEGIVREKAIIRIAREISFFEGPLIIVHGAGSFGHPQAKRYSLAYKFSAEGSGVTHRSVASLNELFVNALAQRNVNAVGIHPMGCLVAKEGRISKSFLLAIQMMLEKGITPVLHGDVVMDTVKGSSVISGDQIVPYLASKLNAYRIGVGSAEDGVLDEHGHPIPLITPDNFEIASMHIGGSENTDVTGGMLGKVKEMLDMSRQTKVPSYIFNANAGGNVMSFLRGEMIGTAIKDKA
notes: as for B1
Consider B4, for which the Km was 36 ± 4 µM in data set [1], 50 ± 10 µM in [11], 100 ± 30 µM in data set [12] and 70 ± 10 µM in [13]. Besides, the kcat in [1] was 4.1 s⁻¹; in [11], 5.2 ± 0.4 s⁻¹; in data set [12], 6.3 ± 0.3 s⁻¹; in data set [13], 0.139 ± 0.008 s⁻¹. Further, the kcat/Km in data set [1] stood at 120000 M⁻¹ s⁻¹; in [11] it was 100000 M⁻¹ s⁻¹; in data set [12] it was 63000 M⁻¹ s⁻¹; in data set [13], 1900 M⁻¹ s⁻¹.
